# According to publication PMC4423566 (Nature communications, 2015):
# Read-outs that look alike come from different tables or passages of the source. Square brackets hold non-standard residues; d marks the D form. Peptide text beside a SMILES is read from it. * marks the point of attachment. X1 = CC(=O)N[C@@H]1[C@@H](O[C@@H]2O[C@H](CO)[C@H](O)[C@H](O)[C@H]2O)[C@@H](O)[C@@H](CO[C@@H]2O[C@H](CO)[C@@H](O[C@@H]3O[C@H](CO)[C@H](O)[C@H](O[C@]4(C(=O)O)C[C@H](O)[C@@H](NC(C)=O)[C@H]([C@H](O)[C@H](O)CO)O4)[C@H]3O)[C@H](O[C@@H]3O[C@@H](C)[C@@H](O)[C@@H](O)[C@@H]3O)[C@H]2NC(C)=O)O[C@@H]1*; sY = N[C@@H](Cc1ccc(OS(=O)(=O)O)cc1)C(=O)O; Mca = COc1ccc2c(CC(=O)*)cc(=O)oc2c1
# B1: P-selectin-glycoprotein-ligand-1 (protein, UniProt Q14242 42-412, looked up)
# P-selectin glycoprotein …: QATEYEYLDYDFLPETEPPEMLRNSTDTTPLTGPGTPESTTVEPAARRSTGLDAGGAVTELTTELANMGNLSTDSAAMEIQTTQPAATEAQTTQPVPTEAQTTPLAATEAQTTRLTATEAQTTPLAATEAQTTPPAATEAQTTQPTGLEAQTTAPAAMEAQTTAPAAMEAQTTPPAAMEAQTTQTTAMEAQTTAPEATEAQTTQPTATEAQTTPLAAMEALSTEPSATEALSMEPTTKRGLFIPFSVSSVTHKGIPMAASNLSVNYPVGAPDHISVKQCLLAILILALVATIFFVCTVVLAVRLSRKGHMYPVRNYSPTEMVCISSLLPDGGEGPSATANGGLSKAKSPGLTPEPREDREGDDLTLHSFLP
# B2: recombinant mouse P-selectin Fc chimera (Fc fusion)
# chain: WTYNYSTKAYSWNNSRVFCRRHFTDLVAIQNKNEIAHLNDVIPFFNSYYWIGIRKINNKWTWVGTNKTLTEEAENWADNEPNNKKNNQDCVEIYIKSNSAPGKWNDEPCFKRKRALCYTASCQDMSCSNQGECIETIGSYTCSCYPGFYGPECEYVKECGKVNIPQHVLMNCSHPLGEFSFNSQCTFSCAEGYELDGPGELQCLASGIWTNNPPKCDAVQCQSLEAPPHGTMACMHPIAAFAYDSSCKFECQPGYRARGSNTLHCTGSGQWSEPLPTCEAIACEPPEIPIHGSMDCVPSTGTFGYNSSCTFLCAEGFVLKGNDAIQCADSGQWTAPAPFCEALQCPEFPVPSKAQVNCSDPFGTLTYQSVCSFSCDEGSLLVGASVIRCLATGHWNGAPPECQAVSCAPMLSPENGSMTCVQPLGNSTYKSTCQFMCDEGFYLSGPERLDCSPSGHWTGTPPTCEAIKCPGIFAPEQGNLDCSHVHGEFGVGSICHFSCNEDFELLGSENVECTVSGRWSAPPPTCKGITSLPAPAVRCPALTTPGQGTMSCQHHLGSFGPNTTCYFGCKTGFTLRGANSLRCRASGQWTAVTPMCRAVKCSELHMDTAVAMNCSNPWGNFSYGSTCTFQCPEGQSLNGSVRATCREDGHWSDAMPTCQAGTLTIQEA
# B3: E-sel-Ig (Biacore assay, species not stated) (Fc fusion)
# chain: WSYNTSTEAMTYDEASAYCQQRYTHLVAIQNKEEIEYLNSILSYSPSYYWIGIRKVNNVWVWVGTQKPLTEEAKNWAPGEPNNRQKDEDCVEIYIKREKDVGMWNDERCSKKKLALCYTAACTNTSCSGHGECVETINNYTCKCDPGFSGLKCEQIVNCTALESPEHGSLVCSHPLGNFSYNSSCSISCDRGYLPSSMETMQCMSSGEWSAPIPACNVVECDAVTNPANGFVECFQNPGSFPWNTTCTFDCEEGFELMGAQSLQCTSSGNWDNEKPTCKAVTCRAVRQPQNGSVRCSHSPAGEFTFKSSCNFTCEEGFMLQGPAQVECTTQGQWTQQIPVCEAFQCTALSNPERGYMNCLPSASGSFRYGSSCEFSCEQGFVLKGSKRLQCGPTGEWDNEKPTCEAVRCDAVHQPPKGLVRCAHSPIGEFTYKSSCAFSCEEGFELHGSTQLECTSQGQWTEEVPSCQVVKCSSLAVPGKINMSCSGEPVFGTVCKFACPEGWTLNGSAARTCGATGHWSGLLPTCEAPTESNIP
# B4: L-sel-Ig (Biacore assay, species not stated) (Fc fusion)
# chain: WTYHYSEKPMNWQRARRFCRDNYTDLVAIQNKAEIEYLEKTLPFSRSYYWIGIRKIGGIWTWVGTNKSLTEEAENWGDGEPNNKKNKEDCVEIYIKRNKDAGKWNDDACHKLKAALCYTASCQPWSCSGHGECVEIINNYTCNCDVGYYGPQCQFVIQCEPLEAPELGTMDCTHPLGNFSFSSQCAFSCSEGTNLTGIEETTCGPFGNWSSPEPTCQVIQCEPLSAPDLGIMNCSHPLASFSFTSACTFICSEGTELIGKKKTICESSGIWSNPSPICQKLDKSFSMIKEGDYN
# Key:
# [1] = molecular target: recombinant mouse L-selectin Fc chimera (mouse) (UniProt P18337); experiment: flow cytometry on cells
# [2] = molecular target: recombinant human P-selectin Fc chimera (human) (UniProt P16109); experiment: flow cytometry on cells
# [3] = molecular target: recombinant mouse P-selectin Fc chimera (mouse) (UniProt Q01102); experiment: flow cytometry on cells
# [4] = molecular target: recombinant mouse P-selectin Fc chimera (mouse) (UniProt Q01102); experiment: flow cytometry on cells; remark: listed apart in the source
# [5] = molecular target: recombinant human P-selectin Fc chimera (human) (UniProt P16109); experiment: flow cytometry on cells; remark: listed apart in the source
# [6] = tested on: P-selectin; experiment: Microarray binding of glycopeptide mimics to selectin-Ig chimeras; set-up: species or system human and mouse; settings: selectin-Ig chimeras 5-20 μg/mL, Alexa-488 anti-human IgG
# [7] = Temperature- and pH-dependent stability by RP-HPLC; format: physicochemical; settings: pH 5, T = 37°C
# [8] = molecular target: GSnP-6; experiment: SPR
# [9] = molecular target: human P-selectin (Homo sapiens, UniProt P16109); settings: cited from earlier work
# [10] = tested on: E-selectin; settings: cited from earlier work
# [11] = tested on: L-selectin; settings: cited from earlier work
# [12] = tested on: P-selectin; settings: read-out: IC50 against P-selectin; cited from earlier work
# recombinant mouse L-selectin Fc chimera (mouse), sequence (P18337 39-332, change not shown): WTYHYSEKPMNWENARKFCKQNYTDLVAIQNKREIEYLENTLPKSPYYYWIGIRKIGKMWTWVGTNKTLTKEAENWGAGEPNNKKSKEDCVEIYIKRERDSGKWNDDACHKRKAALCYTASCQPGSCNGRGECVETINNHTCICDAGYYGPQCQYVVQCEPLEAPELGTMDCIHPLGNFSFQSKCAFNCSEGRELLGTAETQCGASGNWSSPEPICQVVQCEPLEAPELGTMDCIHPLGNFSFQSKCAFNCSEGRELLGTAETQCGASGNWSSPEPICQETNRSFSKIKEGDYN
molecule,measurement,setting,value
GSnP-6 (peptide),IC50,[1],30 µM
same,IC50,[2],14 µM
same,IC50,[3],19 µM
same,IC50,[4],28 µM
same,IC50,[5],20 µM
COc1ccc2c(CC(=O)NCCCC[C@H](N)C(=O)N[C@@H](CCC(=O)O)C(=O)N[C@@H](Cc3ccc(OS(=O)(=O)O)cc3)C(=O)N[C@@H](CCC(=O)O)C(=O)N[C@@H](Cc3ccc(OS(=O)(=O)O)cc3)C(=O)N[C@@H](CC(C)C)C(=O)N[C@@H](CC(=O)O)C(=O)N[C@@H](Cc3ccc(OS(=O)(=O)O)cc3)C(=O)N[C@@H](CC(=O)O)C(=O)N[C@@H](Cc3ccccc3)C(=O)N[C@@H](CC(C)C)C(=O)N3CCC[C@H]3C(=O)N[C@@H](CCC(=O)O)C(=O)N[C@H](C(=O)N[C@@H](CCC(=O)O)C(=O)N3CCC[C@H]3C(=O)N[C@@H](CC(C)C)C(=O)O)[C@@H](C)O[C@H]3O[C@H](CO[C@@H]4O[C@H](CO)[C@@H](O[C@@H]5O[C@H](CO)[C@H](O)[C@H](O[C@]6(C(=O)O)C[C@H](O)[C@@H](NC(C)=O)[C@H]([C@H](O)[C@H](O)CO)O6)[C@H]5O)[C@H](O[C@@H]5O[C@@H](C)[C@@H](O)[C@@H](O)[C@@H]5O)[C@H]4NC(C)=O)[C@H](O)[C@H](O[C@@H]4O[C@H](CO)[C@H](O)[C@H](O)[C@H]4O)[C@H]3NC(C)=O)cc(=O)oc2c1 [GSP-6] (H-K(Mca)E[sY]E[sY]LD[sY]DFLPET(X1)EPL-OH),microarray binding to P-selectin (in words),[6],bound to P-selectin more strongly than to E- or L-selectin
same,stability at low pH,[7],rapidly degraded
recombinant human P-selectin Fc chimera (from UniProt P16109 42-771) (Fc fusion),Kd,[8],0.022 µM
PSGL-1 (from UniProt Q14242),Kd,[9],0.073 µM
"O=C(O)Cc1cccc(-c2cc(CCCCCCc3ccc(O[C@H]4O[C@H](CO)[C@@H](O)[C@H](O)[C@@H]4O)c(-c4cccc(CC(=O)O)c4)c3)ccc2O[C@H]2O[C@H](CO)[C@@H](O)[C@H](O)[C@@H]2O)c1 [bimosiamose, reference compound]",IC50,[10]; read-out: IC50 against E-selectin,[…]
same,IC50,[11]; read-out: IC50 against L-selectin,> 500 µM
same,IC50,[12],70 µM
B1,Kd,[10]; read-out: Kd of PSGL-1 binding to E-selectin,2 to 5 µM
same,Kd,[11]; read-out: Kd of PSGL-1 binding to L-selectin,2 to 5 µM
B2,fold change of Kd against human P-selectin,[8],9 fold
B3,fold lower affinity than P-Sel-Ig,[8],25 fold
B4,fold lower affinity than P-Sel-Ig,[8],25 fold
